Target: p75 neurotrophin receptor (p75^NTR) on rat embryonic (E15) spinal cord motor neurons (rat) (UniProt P07174)
Assay: cell-based or functional assay

Sequence of p75 neurotrophin receptor (p75^NTR) on rat embryonic (E15) spinal cord motor neurons (rat) (P07174 30-425): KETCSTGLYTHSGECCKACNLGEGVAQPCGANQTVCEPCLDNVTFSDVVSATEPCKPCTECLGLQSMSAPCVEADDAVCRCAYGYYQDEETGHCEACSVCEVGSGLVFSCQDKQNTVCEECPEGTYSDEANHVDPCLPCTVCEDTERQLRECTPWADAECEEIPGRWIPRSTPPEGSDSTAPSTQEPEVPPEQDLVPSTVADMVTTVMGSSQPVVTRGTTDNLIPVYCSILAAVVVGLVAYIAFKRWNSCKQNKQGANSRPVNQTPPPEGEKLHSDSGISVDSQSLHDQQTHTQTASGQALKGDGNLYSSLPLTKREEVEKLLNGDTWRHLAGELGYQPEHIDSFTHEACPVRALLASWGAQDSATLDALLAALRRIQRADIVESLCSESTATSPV

In the case of “mouse NGF (2.5S), purified, from Harlan (from UniProt P01139 122-241) (ligand)”, the share of motor neurons vulnerable to NGF in culture is reported as 40%.

Source: patent US20060275290A1
